# Assay results reported in the nanobody polyreactivity screen of Harvey et al. (2022).
# Test: yeast display, Sf9 membrane polyspecificity reagent, FACS + sequencing; frameworks hold sequencing errors
# How it was run: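 Galactose induction of a Saccharomyces cerevisiae BJ5465 synthetic nanobody display library ran 36–48 hours. The cells were then stained for 1 hour at 4 °C with 10% biotinylated, detergent-solubilized Sf9 membrane reagent, pulled down on streptavidin microbeads and FACS-sorted into low and high (top ~1%) gates on expression and reagent-binding fluorescence. Labels for polyreactivity follow the gate of origin.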
row,Sequence,polyreactivity (PSR sort gate)
1,QVQLVESGGGLVQAGGSLRLSCAASGIIFDYNAMGWYRPAPGKERELVAAITSTDNTNYADSVKGRFTISRDNAKNTVYLQMNCLKPEDTAVYYCNTDYWLSVVYAMDYWGQGTQVTVSS,low polyreactivity
2,QVQLVESGGGLVQAGGSLRLSCAASGIIFDYYAMGWYRQAPGKERELVAAINRNGGTTYYADSVKGRFTISRDNAKNSVYLQMNSLKPEDTAVYYCAAVDFGWITYYYWGQGTQVTVAS,high polyreactivity
3,QVQLVESGGGLVQAGGSLRLSCAASGIIFDYYAMGWYRQAPGKERELVAAISKRGGSTYYADSVKGRFTISRDNAKNTVYLQMNSLKPEDTAVYYCAAEYSKRWWYYYWGQGTQVTVSS,high polyreactivity
4,QVQLVESGGGLVQAGGSLRLSCAASGIIFDYYAMGWYRQAPGKERELVASNSWSGGGTYYADSVKGRFTISRDNAKNTVYFQMNRLNPEDTAVYYCAADGSTVNAPRWSDPYDYWGQGTQVTVSS,low polyreactivity
5,QVQLVESGGGLVQAGGSLRLSCAASGIIFDYYTMGWYRQAPGKARELVAGITRSGGRTYYADSVKGRFTISRDNAKNTVYLQMNSLKPEETAGYYCAAVQRRTYVKYESWGQGTQVTVSS,high polyreactivity
6,QVQLVESGGGLVQAGGSLRLSCAASGIIFERNAMGWYRQAPGKERELVAAISSNGGSTYYADSVKGRFTISRDNAKNTVYLQMNSLKPEDTAVYYCAAQGVYAGSRYYYWGQGTQVTVSS,high polyreactivity
7,QVQLVESGGGLVQAGGSLRLSCAASGIIFFFYAMGWYRQEPGKERELVAAISDEGVSTDYADSVKGRFTISRDNAKNTVYLQMNSLKPEDTAVYYCAAKTERVYPWFSFGYWGQGTQVTVSS,low polyreactivity
8,QVQLVESGGGLVQAGGSLRLSCAASGIIFFRYAMGWYRQAPGKERELVAGISGSGGSTYYADSVKGRFTISRDNAKNTVYLQMNSLKPEDTAVYYCAKQWKSNIYYQGGYWGQGTQVTVSS,high polyreactivity
9,QVQLVESGGGLVQAGGSLRLSCAASGIIFFSNAMGWYRQAPAQEMELVAAITGGSSTNYADSVKGRFTISRDNAKNTVYLQMNSLKPEDTAVYYCNAPTKSTPRSEPIPYYEFDYWGQGTQVTVSS,low polyreactivity
10,QVQLVESGGGLVQAGGSLRLSCAASGIIFFYNAMGWYRQAPGKERELVAAISSDGSTYYADSVKGRFTISRDNAKNTVYLQMNSLKPEDTAVYYCNAGSLRYGPYNHWGQGTQVTVSS,low polyreactivity
11,QVQLVESGGGLVQAGGSLRLSCAASGIIFGDNAMGWYRQAPGKERELVAAITIGGTSTYYADSVKGRFTISRDNAKNTVYLQMNSLKPEDTAVYYCAKTILYDCDYWGQGTQVTVSS,low polyreactivity
12,QVQLVESGGGLVQAGGSLRLSCAASGIIFGENAMGWYRQAPGKERELVAAINSVGSTYYADSVKGRFTISRDNAKNTVYLQMNSLKPEDTAVYYCNARLAKVRVKDDYWGQGTQVTVSS,low polyreactivity
13,QVQLVESGGGLVQAGGSLRLSCAASGIIFGENAMGWYRQAPGKERELVAAITESGGSTYYADSVKGRFTISRDNAKNTVYLQMNSLKPEDTAVYYCNALPFRYGKRRGYWGQGTQVTVSS,low polyreactivity
14,QVQLVESGGGLVQAGGSLRLSCAASGIIFGGNVMGRYRQAPGKVRELVAAITWSGGTTYYADSVKGRFTISRDNAKNTVYLQMNSLKPEDTAVYYCAADRVYLDYVAGTYDYWGQGTQVTVSS,low polyreactivity
15,QVQLVESGGGLVQAGGSLRLSCAASGIIFGKYAMGWYRQAPGKERELVASITVDGGTTYYADSVKGRFTISRDNAKNTVYLQMNSLKPEDTAVYYCATGVFAEQWFDYWPYDYWGQGTQVTVSS,high polyreactivity
16,QVQLVESGGGLVQAGGSLRLSCAASGIIFGKYVMGWYRQAPGKEREFVAAISVRSGSTYYADSVKGRFTISRDNAKNTVYLQMNSLKPEDTALYYCAAREPVPRHLDYYYWGQGTQVSVSS,high polyreactivity

row,Sequence,polyreactivity (PSR sort gate)
1,QVQLVESGGGLVQAGGSLRLSCAASGIIFGNNAMGWYRQAPGKERELVAAIRWSTGTTYYADSVKGRFTISRDNAKNTVYLQMNSLKPEDTAVYYCAARLRREYGYWGQGTQVTVSS,high polyreactivity
2,QVQLVESGGGLVQAGGSLRLSCAASGIIFGPYAMGWYRQAPGKERELVAAISSSGGNTYYADSVKGRFTISRDNAKNTVYLQMNSLKPEYTAVYYCAAEGYWGQPFDYDGALEYWGQGTQVTVSS,high polyreactivity
3,QVQLVESGGGLVQAGGSLRLSCAASGIIFGPYAMGWYRQAPGKEWELVAAITWSGGGTYYADSVKGRFTISRDNAKNTVYLQMNSLKPEDTAVYYCAKYFPAGYYYWGQGTQVTVSS,low polyreactivity
4,QVQLVESGGGLVQAGGSLRLSCAASGIIFGRYAMGWYRQAPGKERELVAAISTSGGSTYYADSVKGRFTISRDNAKNTVYLQMNSLKPEDTAVYYCNAVPVVRAGHGYDSWGQGTQVTVSS,high polyreactivity
5,QVQLVESGGGLVQAGGSLRLSCAASGIIFGRYTMGWYRQAPGKERELVAAITSSGITYYADSVKGRFTISRDNAKNTVYLQMNSLKPEDSAVYYCNADYSIPGYYWPYDYWGQGTQVTVSS,low polyreactivity
6,QVQLVESGGGLVQAGGSLRLSCAASGIIFGRYTMGWYRQAPGKERELVAAITSSGITYYADSVKGRFTISRDNAKNTVYLQMNSLKPEDTAVYYCAAEYNWYDYWGQGTQVTVSS,low polyreactivity
7,QVQLVESGGGLVQAGGSLRLSCAASGIIFGSYAMGWYRQAPGKEREFVADISKGDSTYYADSVKGRFTISRDNAKNTVYLQMNSLKPEDTAVYYCAVDSWRRALWYYGRYGYWGQGTQVTVSS,low polyreactivity
8,QVQLVESGGGLVQAGGSLRLSCAASGIIFGTNAMGWYRQAPGKERELVAGITSSGDSTYYADSVKGRFTISRDNAKNTVYLQMNSLKPEDTAVYYCAAYSGVGFLWFDYWGQGTQVTVSS,low polyreactivity
9,QVQLVESGGGLVQAGGSLRLSCAASGIIFGTYAMGWYRQAPGKERDLVAAISSSGGSTYYADSVKGRFTISRDNAKNTVYLQMNSLKPEDTAVYYCAADGPSNHDYHWGQGTQVTVSS,high polyreactivity
10,QVQLVESGGGLVQAGGSLRLSCAASGIIFGTYAMGWYRQAPGKERELVAAINWSGGSTYYADSVKGRFTISRDNAKNTVYLQMNSLKPEDTAVYYCAADGNEYDYWGQGTQVSVSS,low polyreactivity
11,QVQLVESGGGLVQAGGSLRLSCAASGIIFGTYAMGWYRQAPGKERELVASISSRGGSTYYADSVKGRFTISRDNAKNTVYLQMNSLKPEDTAVYYCAKRPSYAYSRYRKGHDYWGQGTQVSVSS,high polyreactivity
12,QVQLVESGGGLVQAGGSLRLSCAASGIIFGVYAMGWYRQAPGKERELVAAIDGNGSSTYYADSVKGRFTISRDNAKNTVYLQMNSLKPEDTAVYYCAARPDYYLWHGYYTRRHYYWGQGTQVTVSA,low polyreactivity
13,QVQLVESGGGLVQAGGSLRLSCAASGIIFGWYAMGWYRPAPGKERELVAAISSGGRTNYADSVKGRFTISRDNAKNTVYLQMNSLKPEDTAVYYCAARLWENTGYYYWGQGTQVTVSS,high polyreactivity
14,QVQLVESGGGLVQAGGSLRLSCAASGIIFGYYAMGWYRQAPGKERELVAAISKRGGSTNYADSVKGRFTISRDNAKNTVYLQMNSLKPEDTAVYYCAARYPQGGTGKATYVRSRSGYWGQGTQVTVSS,high polyreactivity
15,QVQLVESGGGLVQAGGSLRLSCAASGIIFGYYAMGWYRQAPGKERELVAAISRGGNTNYADSVKGRFTISRDNAKNTVYLQMNSLKPEDTAVYYCAADFWSRIKYFYAVDVDYWGQGTQVTVSS,low polyreactivity
16,QVQLVESGGGLVQAGGSLRLSCAASGIIFGYYAMGWYRQAPGKERELVAAISRRGGSTYYADSVKGRFTISRDNAKNTVYLQMNSLKPEDTAVYYCNKRRAAGGFPYDYWGQGTQVTVSS,high polyreactivity
